{"source": "FireProtDB (doi:10.1111/j.1432-1033.1995.tb20418.x)", "proteins": {"B1": {"name": "Guanyl-specific ribonuclease T1 wild type, P00651 (protein)", "chain": "MMYSKLLTLTTLLLPTALALPSLVERACDYTCGSNCYSSSDVSTAQAAGYQLHEDGETVGSNSYPHKYNNYEGFDFSVSSPYYEWPILSSGDVYSGGSPGADRVVFNENNQLAGVITHTGASGNNFVECT"}}, "details": "Aspergillus oryzae (strain ATCC 42149 / RIB 40), Thermal, DSC, 3/3'-dimethylglutaric acid (DMG) 100 mM, NaCl 2 M, whole UniProt chain shown; for heat capacity change of unfolding / unfolding free energy: 25 °C"}
{"protein": "B1", "values": [{"measurement": "heat capacity change of unfolding", "setting": "pH 4", "value": 1.59, "unit": "kcal/mol/K"}, {"measurement": "unfolding free energy", "setting": "pH 4", "value": 31.1, "unit": "kJ/mol"}, {"measurement": "Tm", "setting": "pH 4", "value": 72.4, "unit": "°C"}, {"measurement": "unfolding enthalpy (calorimetric)", "setting": "pH 4", "value": 392, "unit": "kJ/mol"}, {"measurement": "heat capacity change of unfolding", "setting": "pH 5", "value": 1.59, "unit": "kcal/mol/K"}, {"measurement": "unfolding free energy", "setting": "pH 5", "value": 30.9, "unit": "kJ/mol"}, {"measurement": "Tm", "setting": "pH 5", "value": 73.2, "unit": "°C"}, {"measurement": "unfolding enthalpy (calorimetric)", "setting": "pH 5", "value": 390, "unit": "kJ/mol"}, {"measurement": "heat capacity change of unfolding", "setting": "pH 6", "value": 1.59, "unit": "kcal/mol/K"}, {"measurement": "unfolding free energy", "setting": "pH 6", "value": 28.9, "unit": "kJ/mol"}, {"measurement": "Tm", "setting": "pH 6", "value": 70.4, "unit": "°C"}, {"measurement": "unfolding enthalpy (calorimetric)", "setting": "pH 6", "value": 377, "unit": "kJ/mol"}, {"measurement": "heat capacity change of unfolding", "setting": "pH 7", "value": 1.59, "unit": "kcal/mol/K"}, {"measurement": "unfolding free energy", "setting": "pH 7", "value": 19, "unit": "kJ/mol"}, {"measurement": "Tm", "setting": "pH 7", "value": 66.8, "unit": "°C"}, {"measurement": "unfolding enthalpy (calorimetric)", "setting": "pH 7", "value": 300, "unit": "kJ/mol"}, {"measurement": "heat capacity change of unfolding", "setting": "pH 8", "value": 1.59, "unit": "kcal/mol/K"}, {"measurement": "unfolding free energy", "setting": "pH 8", "value": 15.2, "unit": "kJ/mol"}, {"measurement": "Tm", "setting": "pH 8", "value": 65.4, "unit": "°C"}, {"measurement": "unfolding enthalpy (calorimetric)", "setting": "pH 8", "value": 267, "unit": "kJ/mol"}]}
